# From patent US20230346773A1, “USE OF PCSK9 INHIBITOR IN PREPARATION OF PRODUCT FOR TREATING MULTIPLE DISEASES” (priority 2020, published 2023)
# Marks after values point to notes of the source that are not given here.
# B1: Evolocumab (antibody, chains of the INN, looked up, V domains shown)
# VH: EVQLVQSGAEVKKPGASVKVSCKASGYTLTSYGISWVRQAPGQGLEWMGWVSFYNGNTNYAQKLQGRGTMTTDPSTSTAYMELRSLRSDDTAVYYCARGYGMDVWGQGTTVTVSS
# VL: ESALTQPASVSGSPGQSITISCTGTSSDVGGYNSVSWYQQHPGKAPKLMIYEVSNRPSGVSNRFSGSKSGNTASLTISGLQAEDEADYYCNSYTSTSMVFGGGTKLTVL
# notes: PCSK9 monoclonal antibody jointly developed by Amgen and Astellas, trade name Repatha
# What was measured:
# Format in all cases: in vivo
# [1] = tested on: hair follicles / hair growth in depilated C57BL/6 mice; test: Hair growth in C57BL/6 mice after rosin/paraffin depilation
# Protocol: SPF grade C57BL/6 mice were selected and numbered according to their weight. They were randomly divided into compound group 1 (skin applied with 2% R-IMPP solution), compound group 2 (skin applied with 2% PF 06446846 solution), and compound group 3 (skin applied with 2% SBC-115076 solution), compound group 4 (skin applied with 2% SBC-110736 solution), monoclonal antibody group 1 (PCSK9subcutaneous injection monoclonal antibody ab81041, 5 mg/kg·d), monoclonal antibody group 2 (Subcutaneous injection of Evolocumab, 5 mg/kg·d), monoclonal antibody group 3 (subcutaneous injection of Alirocumab, 5 mg/kg·d), PCSK9 RNA interference group-1 (skin applied with 2% PCSK9 small interfering RNA-1 solution), PCSK9 RNA interference Group-2 (skin applied with 2% PCSK9 small interfering RNA-2 solution), PCSK9 RNA interference group-3 (skin applied with 2% PCSK9 small interfering RNA-3 solution), polypeptide group (subcutaneous injection of Abcam company ab32727, 3 mg/kg·d), positive control group (skin applied with 2% minoxidil solution), negative control group (skin applied with 60% ethanol), and model control group (skin applied with 60% ethanol), 10 mice in each group, half male and half female. After the mice were anesthetized with ether, they were coated on the back with a mixture of rosin and paraffin (1:1) after hot melting, and then peeled off after it solidified and hardened. The back of the mouse was cleaned to be hairless and without injuries. The depilation area was about 3 cm×4 cm. From the 2nd day after depilation, the corresponding drugs were applied to the hair removal area, twice a day, 0.5 mL per animal each time, and subcutaneously injected once a week.
# From the second day after application, observe the daily color change of the skin on the back of the mice to determine the growth state of the hair follicles and visually observe the hair growth in the depilation area, and score the new hair growth in the depilation area once a day. Five mice in each group were reserved for 40 days of visual observation, and the growth of back hair was recorded.
# On the 17th day, five mice in each group were sacrificed by cervical dislocation. The samples were taken from the same part of the back parallel to the spine, fixed with 10% formaldehyde, dehydrated, embedded in paraffin, sectioned, stained with HE, and sealed with neutral gum. Then the histology of hair follicles was observed under light microscope, and morphological staging of hair follicles was performed. According to the international hair cycle scoring method, the hair follicles were scored as follows: 100 points for growth stage VI, 200 points for early regression, 300 points for middle regression, and 400 points for late regression. 50 hair follicles were randomly selected from each mouse, the cycle of the hair follicles in each group was determined, and the average hair cycle score and the percentage of hair follicles in the growth phase VI, early regression, middle regression, and late regression were calculated.
# tyrosinase = test: Tyrosinase intensity in skin tissue of vitiligo guinea pig model (immunohistochemistry, two-level scoring); settings: n = 10
# Protocol: (§1) 10 in each group, Half male and female. Except for the blank control group, the other groups were smeared with 5% hydroquinone in the hair removal area for decolorization, 0.5 mL each time, twice a day, and the animals in the blank control group were smeared with an equal amount of normal saline every day. […] After modeling, the drug was administered in the above manner, once a day for 30 days.
# The excised mouse skin tissue was fixed in 10% formalin dehydrated, cleared in xylene, embedded in paraffin, sectioned, deparaffinized to water, then 50 μL of peroxidase blocking agent (3% H2O2) was added to each section for 10 min to block endogenous peroxidase activity. The sections were immersed in 0.01 mol·L-1PBS buffer and microwaved for 10 min, added with 50 μL mouse anti-human tyrosinase monoclonal antibody, left at 37° C. for 60 min, then added with 50 μL of Elivision reagent, left at 37° C. for 30 min. The sections were then placed in freshly prepared DAB-H2O2 chromogenic solution for color development, rinsed with distilled water, stained with hematoxylin for contrast for 1 min, and sealed with neutral gum. The tyrosinase-positive product was located in the cytoplasm of the cell, shown as yellow or brownish-yellow granules or clumps in the cells under the microscope. The two-level scoring method was used to determine the results. If the number of positive cells was less than 5%, the score was 0; 5%˜25% is 1 point; 2 points for 25%˜50%; 3 points for 50%˜75%; >75% is 4 points. When classified according to staining intensity: 1 point for light yellow; 2 points for yellow or dark yellow; 3 points for brown or brownish yellow. If the sum of the two was less than 2, it was negative (−); 2-3 points as positive (+); 4-5 points as moderately positive (2+); 6-7 points as strongly positive (3+).
# [2] = tested on: vitiligo guinea pig model caused by hydroquinone depigmentation; test: Vitiligo guinea pig model caused by hydroquinone depigmentation: counts of epidermal MC and melanin-granule-containing basal cells; settings: guinea pig skin after hydroquinone decolorization, drug once a day for 30 days, n = 10, x ± s
# Protocol: as §1
# After the observation, the mice were sacrificed, and the skin tissue on the back about 3 cm×3 cm was cut for histopathological examination.
# The excised mouse skin tissue was fixed in 10% formalin for 1 hour, washed with running water for 3-4 min, and placed into a phosphate buffer solution (pH 7.4) containing 0.1% dihydroxyphenylalanine, and let stand at 37° C. for 1 hour. Then it was replaced with fresh Dopa reagent and left at 37° C. for 12 hours, rinsed with running water, and fixed with Bouin's solution continuously for 24 h. After the specimens were taken out, it was rinsed with running water for 4 hours, dehydrated, cleared in xylene, embedded in paraffin, deparaffinized to water, and stained with hematoxylin-eosin for contrast. Dehydrated and routinely mounted. After Dopa-oxidase staining, brownish-black staining was MC positive.
# The excised mouse skin tissue was fixed in 10% formalin, dehydrated, cleared with xylene, embedded in paraffin, sectioned, deparaffinized to water, washed with distilled water several times, then stained with Lillie reagent, soaked with ferric chloride and potassium ferricyanide mixed solution for 15-20 minutes, then differentiated with 1% acetic acid aqueous solution for several minutes, washed with distilled water several times, then quickly dehydrated with 95% ethanol and absolute ethanol, cleared in xylene, and sealed with neutral gum. If melanin was dark green after Lillie reagent staining, it was positive.
# [3] = hair removal area on the back of mice, after hair removal
molecule,measurement,setting,value
B1,Time from hair growth to the same length as the hair in the non-experimental area,[1]; back hair removal area of mice,9.89* days
same,Time to grow new hair,[1]; back hair removal area of mice,5.78* days
same,Time to match the length of hair in the non-experimental area,[1]; back hair removal area of mice,16.68* days
same,Black skin duration,[1]; hair removal area on the back of mice,10.21* days
same,Skin black-turning time,[1]; [3],5.23* days
same,Skin grayish-black-turning time,[1]; [3],16.83* days
same,Color (units),tyrosinase; score in brackets for staining colour,4 units
same,Number of positive cells (units),tyrosinase; score in brackets for tyrosinase-positive cells,4 units
same,Total number (units),tyrosinase; sum of positive-cell and colour scores,7 units
same,Color,tyrosinase; tyrosinase staining colour,Brownish-yellow
same,Number of positive cells,tyrosinase; tyrosinase-positive cells,40%
same,Epidermal melanocyte count,[2]; average number of MCs in each 100 epidermal basal cells,46.2 ± 3.8
same,Basal cells containing melanin granules count,[2]; average number per 100 epidermal basal cells,41.2 ± 3.9
